In US20090191571A1:
Read-outs that look alike come from different tables or passages of the source.

B1: Peptide reagent SEQ ID NO:72 (peptide)
peptide: GGGKKRPKPGGGKKRPKPGG
modifications: not checked
B2: Peptide reagent SEQ ID NO:79 (peptide)
peptide: GGGNKPSKPK
modifications: not checked
B3: Peptide reagent SEQ ID NO:85 (peptide)
peptide: GGGKKKKKKKK
modifications: not checked
B4: Peptide reagent SEQ ID NO:73 (peptide)
peptide: GGGGPKRKGPK
modifications: not checked
B5: Peptide reagent SEQ ID NO:53 (peptide)
peptide: GGWGQGGGTHNQWNKPSKPKTN
modifications: not checked
B6: Peptide reagent SEQ ID NO:107 (peptide)
peptide: GGGKKRPAPGG
modifications: not checked
B7: Peptide reagent SEQ ID NO:80 (peptide)
peptide: GGGKPSKPK
modifications: not checked
B8: Peptide reagent SEQ ID NO:98 (peptide)
peptide: GGGKKRAKAGG
modifications: not checked
B9: Peptide reagent SEQ ID NO:106 (peptide)
peptide: GGGKKAPKPGG
modifications: not checked
B10: Peptide reagent SEQ ID NO:104 (peptide)
peptide: GGGAKRPKPGG
modifications: not checked
B11: Peptide reagent SEQ ID NO:65 (peptide)
peptide: KKKAGAAAAGAVVGGLGG
modifications: not checked
B12: Peptide reagent SEQ ID NO:56 (peptide)
peptide: GGGAGAAAAGAVVGGLGG
modifications: not checked
B13: Peptide reagent SEQ ID NO:54 (peptide)
peptide: GGTHNQWNKPSKPKTN
modifications: not checked
B14: Peptide reagent SEQ ID NO:71 (peptide)
peptide: PHGGGWGQ
modifications: not checked
B15: Peptide reagent SEQ ID NO:105 (peptide)
peptide: GGGKARPKPGG
modifications: not checked

How the values were obtained:
[1] = target: T1, PrP^Sc (pathogenic mouse prion protein, RML, in infected Balb-c mouse brain homogenate) (mouse), P04925
[2] = target: T1, PrP^Sc (pathogenic mouse prion protein, …); remark: listed apart in the source

| Binder | ELISA A405nm [1] [A405nm] | ELISA A405nm [2] [A405nm] |
| --- | --- | --- |
| B1 | 0.522 |  |
| B2 | 0.24 |  |
| B3 | 0.53 |  |
| B4 | 1.06 |  |
| B5 | 0.254 |  |
| B6 |  | 0.578 |
| B7 | 0.225 |  |
| B8 | 1.46 |  |
| B9 |  | 0.268 |
| B10 |  | 0.273 |
| B11 | 0.635 |  |
| B12 | 0.313 |  |
| B13 | 0.253 |  |
| B14 | 0.263 |  |
| B15 |  | 0.256 |
